Source: IntAct's records for PubMed 23452855

B1: F-box/LRR-repeat protein 21 (Mus musculus), Q8BFZ4 (parent)
chain: MKRNNFSAVNKVVQSSPVVKQPKRGLCSSLRQTHALSVLLDWGTLPHHVILQIFQYLPLIDRARASSVCRRWNEVFHIPDLWRKFEFELNQSATSYFKSTHPDLIQQIIKKHAAHLQYVSFKVDSSTESAEAACDILSQLVNCSIQTLGLISTAKPSFMNVPKSHFVSALTVVFVNSKSLSSIKIEDTPVDDPSLKILVANNSDTLRLLKMSSCPHVSSDGILCVADHCQGLRELALNYYILSDEILLALSSETHVNLEHLRIDVVSENPGQIKFHSIKKRSWDALIKHSPRVNVVMYFFLYEEEFEAFFKEETPVTHLYFGRSVSRAILGRIGLNCPRLIELVVCANGLLPLDSELIRIAKHCKNLTSLGLSECEVSCSAFVEFVRLCGRRLTQLSIMEEVLVPDDRYTPDEVHTEVSKHLGRVWFPDVMPIW
partner: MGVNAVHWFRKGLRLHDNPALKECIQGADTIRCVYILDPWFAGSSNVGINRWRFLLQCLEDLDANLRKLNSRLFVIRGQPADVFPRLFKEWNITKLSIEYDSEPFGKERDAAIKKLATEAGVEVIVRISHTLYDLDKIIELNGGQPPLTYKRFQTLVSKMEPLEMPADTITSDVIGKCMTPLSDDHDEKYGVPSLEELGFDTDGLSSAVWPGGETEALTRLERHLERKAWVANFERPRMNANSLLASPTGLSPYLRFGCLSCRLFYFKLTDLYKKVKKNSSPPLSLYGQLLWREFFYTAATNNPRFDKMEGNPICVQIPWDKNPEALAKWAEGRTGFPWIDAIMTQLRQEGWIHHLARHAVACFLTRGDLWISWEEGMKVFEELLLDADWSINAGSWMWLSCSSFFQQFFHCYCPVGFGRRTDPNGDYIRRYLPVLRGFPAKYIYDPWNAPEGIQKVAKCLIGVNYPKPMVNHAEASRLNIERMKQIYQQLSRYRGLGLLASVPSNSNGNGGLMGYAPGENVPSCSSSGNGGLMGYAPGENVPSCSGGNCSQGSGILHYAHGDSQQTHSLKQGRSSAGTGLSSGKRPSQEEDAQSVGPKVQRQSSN

Variants of: B1
Conditions: with cry1_mouse Cry1, P97784

| effect of a mutation on the interaction | Variant |
| --- | --- |
| decreasing interaction strength | MKRNNFSAVNKVVQSSPVVKQPKRGLCSSLRQTHALSVLLDWGTLPHHVILQIFQYLPLIDRARASSVCRRWNEVFHIPDLWRKFEFELNQSATSYFKSTHPDLIQQIIKKHAAHLQYVSFKVDSSTESAEAACDILSQLVNCSIQTLELISTAKPSFMNVPKSHFVSALTVVFVNSKSLSSIKIEDTPVDDPSLKILVANNSDTLRLLKMSSCPHVSSDGILCVADHCQGLRELALNYYILSDEILLALSSETHVNLEHLRIDVVSENPGQIKFHSIKKRSWDALIKHSPRVNVVMYFFLYEEEFEAFFKEETPVTHLYFGRSVSRAILGRIGLNCPRLIELVVCANGLLPLDSELIRIAKHCKNLTSLGLSECEVSCSAFVEFVRLCGRRLTQLSIMEEVLVPDDRYTPDEVHTEVSKHLGRVWFPDVMPIW [G149E] |
